Measurements: patent publication US20230287362A1 (REGENTS OF THE UNIVERSITY OF COLORADO A BODY CORPORATE, published 2023)
Ends that are not written are not given here.

Legend:
[1] = target: T1, E. cloacae Cap2 E1 domain, residues 374-600, C548A (Enterobacter cloacae UCI 50, UniProt P0DX82 374-600); assay: X-ray crystallography of a fusion construct, 1.77 A
T1 construct: also called Cap2 E1 (of Cp2 E1-CD-NTase Apo, PDB 7TSX)

[2] = target: T2, E. cloacae Cap2 E1 domain, residues 363-600, C548A (Enterobacter cloacae UCI 50, UniProt P0DX82 363-600); assay: X-ray crystallography of a fusion construct, 2.11 A
T2 construct: also called Cap2 E1 (of Cap2 E1-CD-NTase: AMP, PDB 7TSQ)

[3] = target: T3, E. cloacae Cap2 C109A/C548A (catalytically dead) (Enterobacter cloacae UCI 50, UniProt P0DX82 1-600); assay: co-purified stoichiometric complex, cryo-EM
T3 construct: also called C.D. Cap2; Cap2(C548A/C109A)

Row | Binder | binding result [1] | binding result [2] | binding result [3]
1 | KPAEPQKTGRFA (also: C terminus conjugated to AMP in ATP-bound structure, unmodified in apo structure) [E. cloacae CD-NTase C terminus, residues 370-381] | binds | binds | 
2 | E. cloacae CD-NTase with an N-terminal His6-tag (enzyme, C terminus conjugated to AMP in the cryo-EM structure, also called His6-CD-NTase; ec cdnD02; not shown: N-terminal His6-TEV cleavage site tag of vector 2-BT) MELQPQFNEFLANIRPTDTQKEDWKSGARTLRERLKNFEPLKEIVVSTFLQGSIRRSTAIRPLGDKRPDVDIVVVTNLDHTRMSPTDAMDLFIPFLEKYYPGKWETQGRSFGITLSYVELDLVITAIPESGAEKSHLEQLYKSESVLTVNSLEEQTDWRLNKSWTPNTGWLSESNSAQVEDAPASEWKAHPLVLPDREKNEWGRTHPLAQIRWTAEKNRLCNGHYINLVRAVKWWRQQNSEDLPKYPKGYPLEHLIGNALDNGTTSMAQGLVQLMDTFLSRWAAIYNQKSKPWLSDHGVAEHDVMARLTAEDFCSFYEGIASAAEIARNALASEEPQESAQLWRQLFGSKFPLPGPQGGDRNGGFTTPSKPAEPQKTGRFA |  |  | binds
